Measurements taken from the DeepSol protein solubility set.

Experiment: soluble on expression in E. coli; label from the status in PepcDB or PDB records

Row | Sequence | soluble on expression in E. coli
1 | AIAAQDENKEQPKKDWKTIISPQYWKNSVSLLFTDAEQGNFVLPSLQSVSFSKASETIGKQVKESAKELGALFSAEECPSQQGSKEAPWEVLTAREKPFAKEIEERILKITSDCYRSRKEREEIFLSLSSLKDSHFRWSNNSSEKMKQAMAALEKDPILPDLRAGLVPKRMSEENFWRQYFYLVEKVKKSVVTNSQFGLFDEWESWSDTTSHPTLEHSQENSDLDNEVDQVLNDVLE | soluble
2 | AIAATPTEHEDLSEQEVTEDEFKTPKIRETPEDIKLEAIVNTIAFHPKQDILAAGDIDGDIYLFSYSCTEGENKELWSSGHHLKSCRKVLFSSDGQKLFSVSKDKAIHIMDVEAGKLETRIPKAHKVPINAMLLIDENIFATGDDEGTLKVWDMRKGTSFMDLKHHEDYISDITIDQAKRTLLTSSGDGTLGVFNIKRRRFELLSEIQNGDLTSVSIMKRGRKVVCGSGEGTIYIFNWNGFGATSDRFAVQAESVDCIVPITDSILCAASTDGVIRAINILPNRVVGSIGQHVGEAIEEIARCRDTHFLASCAHDELIKFWDISSLPDEKVNDYRRRKKKDRRLKALSNKAFDTGQNFFAGLLDTTEENGKEGENDEDDDDEDSDSGSD | soluble
3 | AIAEAEGMLPPQSLSAKFEGSFAYLTVRDRLPTILTKVVDTLHRNKDNFYKEYGEEGTEAEKRAISFLSRLRNELQTDKPVLALTDNAEDTQAWNEYMERQQDLMENGQLVSWFKSPWLYVECYMYRRIQEALYMNPPMHNFDPFKEGKTQSYFESQQAIKYLCTYLQELITNMENMTEIQLRENFLKLIQVSLWGNKCDLSISAGQDNSQKLSPIDSLPDLQRFILVDDSSMVWSTLVASQGSRSSGMKHARVDIILDNAGFELVTDLVLADFLISSGLAKQIRFHGKSIPWFVSDVTKQDFEWTIKQTMAANHKWMSASGVQWKHFMKEGTWSYHDHPFWTLPHEFCDMTVDAANLYSTLQTSDLILFKGDLNYRKLTGDRKWEHTVRFDQALRGFQPAPLCSLRTLKADVQVGLQAGHAEKLSTQDPDWMTNGKYAVVQFSSPHREQ | soluble
4 | AIAGGAVSAGQDNDELIDNLKEAQYIRTEAVEKAFRAIDRADYYLEEFKQNAYRDLAWKHGNIHLSAPCIYSEVMEALDLQPGLSFLNLGSGTGYLNTMAGLILGPFGINHGVEIHADVIEYAKEKLDLFVHTSDSFDRFDFCEPSFVAGNCLDIALDCMYDRVYCGAGVQKEHKEYMKNLIKVGGILVLPLEEKLTKITRTGPSSWETKKILAVSFAPLIQPDHVESAKSKSLQLPLPNIRSLQDLSRITIRRHIKKIVNQVPNGRGDGVMKNPPRYKRKRLRRRPLQTVVYLEEGGFACRIQNSFDDNNNCEGAGNCEGAGDDLAEKEEQGVSETKPNPPVNFLREKILCLPLPVPLKYYLLYYREK | soluble
5 | AIAGSVNSRGHKAEAQVVMMGLDSAGKTTLLYKLKGHQLVETLPTVGFNVEPLKAPGHVSLTLWDVGGQAPLRASWKDYLEGTDILVYVLDSTDEARLPESAAELTEVLNDPNMAGVPFLVLANKQEAPDALPLLKIRNRLSLERFQDHCWELRGCSALTGEGLPEALQSLWSLLKSRSCMCLQARAHGAERGDSKRS | soluble
6 | AIASKREDEGCARKRRTEAGQRSEDCMNPNSVVISAFKVFQQELDTRYDKYERLVKISRDVTIESKRTIFLLHRVASVPDVEEILNEAEVKLDGVRQKIGQIAEELRGEDLHQFHRAFTPGIQEYVEAVSFHHFIRHRSLISLEEINARLVFIRDNNKAVGEGTFSSPCVLTFQITPTDYLLGVADLTGELMRMCISSVGNGDMDTPFQLSGFLRQIHDGFSLIGNTGPYEVSKKLHALRQSLGKVEDACYTLRVRGSEIPKHMLADVFSSRAAHIDPDDAMA | soluble
7 | AKDALLLWCQMKTAGYPNVNVHNFTTSWRDGLAFNAIVHKHRPDLLDFESLKKCNAHYNLQNAFNLAEKELGLTKLLDPEDVNVDQPDEKSIITYVATYYHYFSKMKALAVEGK | soluble
8 | ALAQKRDNVLFQAATDEQPAVIKTLEKLVNIETGTGDAEGIAAAGNFLEAELKNLGFTVTRSKSAGLVVGDNIVGKIKGRGGKNLLLMSHMDTVYLKGILAKAPFRVEGDKAYGPGIADDKGGNAVILHTLKLLKEYGVRDYGTITVLFNTDEEKGSFGSRDLIQEEAKLADYVLSFEPTSAGDEKLSLGTSGIAYVQVNITGKASHAGAAPELGVNALVEASDLVLRTMNIDDKAKNLRFNWTIAKAGNVSNIIPASATLNADVRYARNEDFDAAMKTLEERAQQKKLPEADVKVIVTRGRPAFNAGEGGKKLVDKAVAYYKEAGGTLGVEERTGGGTDAAYAALSGKPVIESLGLPGFGYHSDKAEYVDISAIPRRLYMAARLIMDLGAGK | soluble
9 | ALIDVVVVCDESNSIYPWDAVKNFLEKFVQGLDIGPTKTQVGLIQYANNPRVVFNLNTYKTKEEMIVATSQTSQYGGDLTNTFGAIQYARKYAYSAASGGRRSATKVMVVVTDGESHDGSMLKAVIDQCNHDNILRFGIAVLGYLNRNALDTKNLIKEIKAIASIPTERYFFNVSDEAALLEKAG | soluble
10 | ALNQMNNLMTQEATGLKILCAPDKDSSFVIYEDDGETMDYANGGYLKTVLDIKAGEQTVLSFRNEGEYETAVEDIYLDVIHREKAPYWVKADGHELPHFLHRKKFEAAQEGWYYSQSLKSVQIKYKNPKKDYEVIVSFEQFDMIGM | not soluble
11 | AMARVGVLGAKGKVGATMVRAVAAADDLTLSAELDAGDPLSLLTDGNTEVVIDFTHPDVVMGNLEFLIDNGIHAVVGTTGFTAERFQQVESWLVAKPNTSVLIAPNFAIGAVLSMHFAKQAARFFDSAEVIELHHPHKADAPSGTAARTAKLIAEARKGLPPNPDATSTSLPGARGADVDGIPVHAVRLAGLVAHQEVLFGTEGETLTIRHDSLDRTSFVPGVLLAVRRIAERPGLTVGLEPLLDLH | soluble
12 | AMLAELTHRCPLACPYCSNPLALHGKARELDTQTWARAFDEAAALGVLQLHLSGGEPASRPDLVELTRAAHEAGLYTNLITSGIGLTPARLDALEAVGLDHIQLSLQGTTPDLADRIGGYKGGFARKMAVAAEIKARGIPLTLNAVMHRHNLDDLERTIELAIELGARRLEVACVQFHGWATRNRAALLPSRAQTEAAKRIVAEAEARLRGTLAFDFVPPDYYADYPKACMGGWGSAGLNIAPDGTVLPCHAA | not soluble
13 | APLKLYGMPLSPNVVRVATVLNEKGLDFEIVPVDLTTGAHKQPDFLALNPFGQIPALVDGDEVLFESRAINRYIASKYASEGTDLLPATASAAKLEVWLEVESHHFYPNASPLVFQLLVRPLLGGAPDAAVVDKHAEQLAKVLDVYEAHLARNKYLAGDEFTLADANHASYLLYLSKTPKAGLVAARPHVKAWWEAIVARPAFQKTVAAIPLPPPP | soluble
14 | APPSSFSAAKQQAVKIYQDHPISFYCGCDIEWQGKKGIPNLETCGYQVRKQQTRASRIEWEAVVPAWQFGHHRQCWQKGGRKNCSKNDQQFRLMEADLHNLTPAIGEVNGDRSNFNFSQWNGVDGVSYGRCEMQVNFKQRKVMPPDRARGSIARTYLYMSQEYGFQLSKQQQQLMQAWNKSYPVDEWECTRDDRIAKIQGNHNPFVQQSCQTQ | soluble
15 | AQKHVAIALCGKGNIGSSWLKLFAEQKEKLEQRHGMNFELVAVVDSQTYWFNEQGINPNQVATHFQDEALPNQEQSWLKKLGALEGYDEAVVIDVTASEELAEQYLDIAEHGLHLISANKVAGSAAGNYYYQVKDAFHKIGRHWLYNATVGAGLPINHTVRDLRESGDDIMALSGIFSGTLSWLFQQYDGSL | not soluble
16 | AQYKDDPILKAATIVSAPLDLAACANRIEQGFSKVYRRYLLSSLKRNALQKHHLLHGELALSYNSIKRVTRLYEFDDLITAPLHGFKDAQDYYDQCSGLSKLLQITLPTLIIHAKDDPFMTEEVIPKFVLPDNIDYRLFEHGGHVGFLTGT | not soluble
17 | ARDPKHDILFEPIQIGPKTLRNRFYQVPHAIGAGSDKPGFQSAHRSVKAEGGWAALNTEYCSINPESDDTHRLSARIWDEGDVRNLKAMTDEVHKYGALAGVELWYGGAHAPNMESRATPRGPSQYASEFETLSYCKEMDLSDIAQVQQFYVDAAKRSRDAGFDIVYVYGAHSYLPLQFLNPYYNKRTDKYGGSLENRARFWLETLEKVKHAVGSDCAIATRFGVDTVYGPGQIEAEVDGQKFVEMADSLVDMWDITIGDIAEWGEDAGPSRFYQQGHTIPWVKLVKQVSKKPVLGVGRYTDPEKMIEIVTKGYADIIGCARPSIADPFLPQKVEQGRYDDIRVCIGCNVCISRWEIGGPPMICTQNATAGEEYRRGWHPEKFRQTKNKDSVLIVGAGPSGSEAARVLMESGYTVHLTDTAEKIGGHLNQVAALPGLGEWSYHRDYRETQITKLLKKNKESQLALGQKPMTADDVLQYGADKVIIATGARWNTDGTNCLTHDPIPGADASLPDQLTPEQVMDGKKKIGKRVVILNADTYFMAPSLAEKLATAGHEVTIVSGVHLANYMHFTLEYPNMMRRLHELHVEELGDHFCSRIEPGRMEIYNIWGDGSKRTYRGPGVSPRDANTSHRWIEFDSLVLVTGRHSECTLWNELKARESEWAENDIKGIYLIGDAEAPRLIADATFTGHRVAREIEEANPQIAIPYKRETIAWGTPHMPGGNFKIEYKV | soluble
18 | ASKPVEPAKPAEPTKVEFEEKQGKRGVKLGTVAIILSIIFGGGLAYKLHEQQADYQAQIAQLQNQLEKAQASMKQELNQVKEETIEKATTVTHKAEVVLGQQQKSIESLQLAVADVKGRRPNDWLLAEADYLVKLAGRKLFLEHDVESATQLMESADQRIAALNDPSLVKLRKAMANDITKLRTVPLIDRDGLVLRLTALQQQVDKLPLANALLPEAQVVAQHEVSEDISNWQDNLMTSLKDFSENFITFRTRDGNVIPLLSPEQHFYLKENIKAKLETAIKAVYQEQGEIYTTSLTTADKWAMAFFNQDDNAVKEFNKALNQLSQQNIQVEYPAKLESQSQLSDVIRERLRREVTTMTGTGDK | not soluble
19 | ASLIEDIDKKHLVLLRDGRTLIGFLRSIDQFANLVLHQTVERIHVGKKYGDIPRGIFVVRGENVVLLGEI | not soluble
20 | ASMRPVRLMKVFVTRRIPAEGRVALARAADCEVEQWDSDEPIPAKELERGVAGAHGLLCLLSDHVDKRILDAAGANLKVISTMSVGIDHLALDEIKKRGIRVGYTPDVLTDTTAELAVSLLLTTCRRLPEAIEEVKNGGWTSWKPLWLCGYGLTQSTVGIIGLGRIGQAIARRLKPFGVQRFLYTGRQPRPEEAAEFQAEFVSTPELAAQSDFIVVACSLTPATEGLCNKDFFQKMKETAVFINISRGDVVNQDDLYQALASGKIAAAGLDVTSPEPLPTNHPLLTLKNCVILPHIGSATHRTRNTMSLLAANNLLAGLRGEPMPSELKL | soluble
21 | ATCDDGRTTANAACCILFPILDDIQENLFDGAQCGEEVHESLRLTFHDAIGFSPTLGGGGADGSIIAFDTIETNFPANAGIDEIVSAQKPFVAKHNISAGDFIQFAGAVGVSNCPGGVRIPFFLGRPDAVAASPDHLVPEPQDSVDSILARMGDAGFSPVEVVWLLASHSIAAADKVDPSIPGTPFDSTPGVFDSQFFIETQLKGRLFPGTADNKGEAQSPLQGEIRLQSDHLLARDPQTACEWQSMVNNQPKIQNRFAATMSKMALLGQDKTKLIDCSDVIPTPPALVGAAHLPAGFSLSDVEQACAATPFPALTADPGPVTSVPPVPGS | soluble
22 | ATEATNATNNQSTQVSQATSQPINFQVQKDGSSEKSHMDDYMQHPGKVIKQNNKYYFQTVLNNASFWKEYKFYNANNQELATTVVNDNKKADTRTINVAVEPGYKSLTTKVHIVVPQINYNHRYTTHLEFEKAIPTLADAAK | soluble
23 | AVVFLWRNEEKWPAEFVSENVVKFGYTVEDFISGNFLYGDIIHPEDRNRVKEELKTRIRRGEVDFNTGYRIFTKAGDVRWVNERAFIQRNREGEITHIQGLVLDIT | not soluble
